The target in data set [1] is human ChaC2 (wild type) (human) (UniProt Q8WUX2). Nature of the data set: crystal structure; wild type ChaC2 crystals, hanging drop, 14% PEG 8000, 14% ethylene glycol, 100 mM HEPES pH 7.5, 22 °C; three molecules in the asymmetric unit, each in a crystallographic dimer with a molecule of a nearby asymmetric unit.
Data set [2] concerns the molecule itself. Nature of the data set: SEC; HiLoad 16/600 Superdex 75 pg, 20 mM Tris-HCl pH 7.1, 150 mM NaCl, 5 mM DTT, 2% glycerol, 1 mL/min, calibrated with molecular weight standards. Background: In gel filtration, larger molecules generally elute earlier.

Where “and” joins values, the source holds several entries; their conditions need not be identical. Identical values can stand only once.

Regarding “human ChaC2 (wild type) (from UniProt Q8WUX2 1-184) (enzyme)”, in data set [1], the stoichiometry N worked out at 2.

B1: human ChaC1 (enzyme, UniProt Q9BUX1 1-222, looked up)
chain: MKQESAAPNTPPTSQSPTPSAQFPRNDGDPQALWIFGYGSLVWRPDFAYSDSRVGFVRGYSRRFWQGDTFHRGSDKMPGRVVTLLEDHEGCTWGVAYQVQGEQVSKALKYLNVREAVLGGYDTKEVTFYPQDAPDQPLKALAYVATPQNPGYLGPAPEEAIATQILACRGFSGHNLEYLLRLADFMQLCGPQAQDEHLAAIVDAVGTMLPCFCPTEQALALV
notes: human ChaC1, cDNA from the Korean Human Gene Bank, cloned into pET-21a between BamHI and XhoI; source: E. coli C41 (DE3), purified (Ni2+ HiTrap Chelating HP, HiTrap Q HP, Superdex 75 pg)
As to B1, the “stoichiometry N” value in data set [2] was 2 and 4.

Usually stoichiometry N stands for the number of molecules, sites or subunits per partner or assembly.

Source of the values: article PMC7022552, “Structural and Functional Analyses of Human ChaC2 in Glutathione Metabolism” (Biomolecules, 2019).
